Assay results reported in a protein production outcome set (Wang et al. 2014).

Test: label from the status in PepcDB records

Row | Sequence | protein production
1 | MEMMLGKTYREMVFWMAWIIIPFLMEIVPALGGFIILLRKRLSIKDKAFSGKLPQITIIVPVYNSEDTLKGCIESIYNSDYPSEFIDVMLVDNQSSDNSFKIFTRCQKEFDGLSLRYMNSKQGKSKALNMALFNSSGKYIIHIDSDGKLHKDAIKNMVTRFEGNPHVHCMTGVILTDKELIEKTKGSFFKLLRKCEFFEYAQAFLAGRNFESEVGSIYTLSGAFSAFRKSTILKTQLYNSETVSEDTQITFQVKKLLNQKVYLCENALFFVDPIEGFNKLYTQRQRWQRGELEVSHMFLRDGLKFGKGFVSDFMVRTLMYDHTFAFPRMIWYFALIFLVFMNYPIYLVVGSVAVIYLLYSLSAFLFYLNVISYLKKYKEVRSYYAKKFYLIFLMPMYNFGVFWIRFCGIINSIQLQGNWKTLNLTDEWRNFLGVFKRDFSVVFKVLNKLRQVVNNE | failed
2 | MNSTISFLYQPKVQNGSIISVEALLRVPGVTNIESYVSMVTNKPLFDYTIIRKVLSDRREYHENIGYSFPVSINISIQSLESDYFINKTSKLLKNEPNVTLEITENDSYLSLERVKESMGILKSLGVKFSLDDFGKGFSDIEQVLSLDLDEIKVDGSLVNDIENNFYKFRHLKYTLDELEDISNFNIVIERVENKKQVNLIESLGKKVSYQGYFFYKPMNLFDLTIATPEPHKEEKHEPKLLLEKLIYELIKTDNDNECAQLVNDIHSVDIFNNLGSKVCDSLTITEVKKSILKKYNKIALNPNSPENLFFKSYLNCMSRLVIIRDSEGNALFNNQAHINFMNVDLVGMPLESIYEKFEQYESCIAIDKELIESKSNFLAVREVVDFDGQTKSYYTFRQKINHYGKTLIITIVYDEDDRDSFPRDALTDCFDRTILNSYYMNQFNMVAFIDMDGFKKINDNFSHKLGDDCLSKFVMYLKHELRKEDLIIRYGGDEFLIFTQWDDRHTFESRLNLIRNKVEKLFKSNNIDLSFSYGIEDLSKGMEIAINCADEKMYADKSRKLQ | failed
3 | MTIMAGCMLVLPVMDAIAKYMAVSVGMSPAQVTFYRFFFQVLCTLPLLLVVSPGALFSAKRPWMNCLRGVLHASASLMFFAAVKYMPLADVFAIYFVEPFMLTMMSALFLGDRVGWKRWTAIVVGFGGALIVIQPSFEIFGWTSLLPVACAFFYTLYLFLNRAIGDADSPLVMQTMSGIAGTLFMAAALFAGDALGDKDFAVSLPQSAFALVLLVLLGSLSGYMHLLIVRAFRLAPLSLLAPFQYFEIISATILGYALFSDFPTPSKWLGILIIVASGLFIIWRERQQPASTPPLEGQ | failed
4 | MERIAMNPLMQQAIQFANDHETAWDRSVRGNFGVHLDDPPPWNRLLGPVHDRGPVSGVVVVDGQTLASWGEPERADLTFSVAKLYLSILAGVAHDRGLLPDVDEPVGRRVPGIGFDAGRNARITWRHLLQQTSEWEGERFGVPDQADRYRAVAFGIPPDGRKGDARPLQEPGTYWEYNDVRINQLSYALLHLFRRPLPEVFREAVTRPLGASEDWQWVGYDNAWVDIDGVRMPSVPGGTHWGGGMSISARDQALIGRMLLDEGRAADGRQVLSPAWIQAMRTPCDIAPYYGYLIWLNHERKVFPSVPASSFFGIGAGSSFTWVEPERRMVVIVRWLDAAYADALFGRILAAVDAHRAGLEHHHHHH | failed
5 | MGRGRKHTDAAAEQRELAIKANIVDEPFSVSAIDRSIRKAEWVKTETDQILSGRCPETDGTWLGISTRGRVAFLVEAGTINRDRFNGAESRTLEFLESNESPEDFAKSSAADYIRNKNTAAFHLIVADIASNSMLYISKPRFSDYGIVYTEPVGPGVHTLSSAGLDSDVGYRDLRMRHSFCEMINRERLPPIRDIAEIMYDPVKAYESVLLSSIFFVDMKIGYEHYGTRITTALVVKRTKEVLFFERYREIFNDDWDDHDFAFTII | failed
6 | MRYSLFKNYLPKEEVPEIRKELIKLALPAMGENVLQMLFGMADTAFLGHYSWKAMSGVGLSNQVFWVVQVVLIAASMGATVTIANAIGAGNRKAVRSLAWNSVFLAIFTGVILTALTPLSDVLINIFPNLEGEIESSAKEYLKVILSGSMGFSIMAVFSAMLRGAGDTRTPMIVTGLTNFLNIFLDYAMIFGKFGFPEMGVRGAAVATILSRFVGAGILTYVIFKREEFQLRKGLVPPKWSSQKEILRVGFPTAIENFVFSTGVLMFANILLIAGAEAYAGHRIGINVESLSFMPAFGISVAITTLVGRYNGMGNKEHVLGVIRQGWILSLLFQVTVGIIIFLFPEPLIRIFTSDPQIIEISKLPVKIIGLFQFFLAIDSTMNGALRGTGNTLPPMIITFISIWTARLPVAFVMVKYFQLGLLGAWIGMIADIIFRSTLKLLFFLSGKWEKRAVLTRERVKELG | failed
7 | MQYPPRLGFGTWQAPPEAVQTAVETALMTGYRHIDCAYVYQNEEAIGRAFGKIFKDASSGIKREDVWITSKLWNYNHRPELVREQCKKTMSDLQVDYLDLFLVHWPLAFVRNDVGDLFPKDAEGRAMLEKVPLADTWRAMEQLVEEGLVKHIGVSNYTVPLLADLLNYAKIKPLVNQIEIHPWHPNDATVKFCLDNGIGVTAYSPMGGSYADPRDPSGTQKNVILECKTLKAIADAKGTSPHCVALAWHVKKWNTSMYSVIPKSQTPARIEANFKCTEVQLSDDDMDAINNIHLNKRIRFCDPAIFWKVPLFD | not failed
8 | MSNFEKRNRKMAEKNIRKPKQERSIEKRNKILQVAKDLFSDKTYFNVTTNEIAKKADVSVGTLYAYFASKEDILTALLKRYNDFFLTTIFADINSQDSLDRFKKNPKEWLNVLINQLLAAEDKIFHAQIEMLAYAIPQAKALLEEHNNNLKNLTYKCLLYYSDQAANPSFKTLSLVVFDFISALVDELLYHEHTQEEAHQIKKTGIDSLDLIIKSYL | not failed
9 | MSVFMDLNIINSSDKNRLKHIIETAAHLGYSTVAINYVVEPLQKKQEIPNPQSISDLFDKFPVVQGKSSPIKVLNRLTIVASDASHFRPTNEYKKFDLVAVYPKTEKLFHAACMTFDVDIICIAVTEKQPFHFKRAPVNGAIDRGIFFETCYAAAIRDSITRRYTIANAICLMEICKGKNVIVSSGAERQLELRGPYDIANLGLVFSLSEGDAKAAVSTNCRSVLLHGETRATASGVIHTMKKPQILQKEEEETPAAKKARTELA | failed
